Data as given in patent US20110052591A1.

Molecular target: TSH receptor on mouse alveolar macrophage AM cells (AMJ2-C8) (mouse) (UniProt P47750)
Assay: cell-based or functional assay

UniProt P47750, sequence (P47750 22-764): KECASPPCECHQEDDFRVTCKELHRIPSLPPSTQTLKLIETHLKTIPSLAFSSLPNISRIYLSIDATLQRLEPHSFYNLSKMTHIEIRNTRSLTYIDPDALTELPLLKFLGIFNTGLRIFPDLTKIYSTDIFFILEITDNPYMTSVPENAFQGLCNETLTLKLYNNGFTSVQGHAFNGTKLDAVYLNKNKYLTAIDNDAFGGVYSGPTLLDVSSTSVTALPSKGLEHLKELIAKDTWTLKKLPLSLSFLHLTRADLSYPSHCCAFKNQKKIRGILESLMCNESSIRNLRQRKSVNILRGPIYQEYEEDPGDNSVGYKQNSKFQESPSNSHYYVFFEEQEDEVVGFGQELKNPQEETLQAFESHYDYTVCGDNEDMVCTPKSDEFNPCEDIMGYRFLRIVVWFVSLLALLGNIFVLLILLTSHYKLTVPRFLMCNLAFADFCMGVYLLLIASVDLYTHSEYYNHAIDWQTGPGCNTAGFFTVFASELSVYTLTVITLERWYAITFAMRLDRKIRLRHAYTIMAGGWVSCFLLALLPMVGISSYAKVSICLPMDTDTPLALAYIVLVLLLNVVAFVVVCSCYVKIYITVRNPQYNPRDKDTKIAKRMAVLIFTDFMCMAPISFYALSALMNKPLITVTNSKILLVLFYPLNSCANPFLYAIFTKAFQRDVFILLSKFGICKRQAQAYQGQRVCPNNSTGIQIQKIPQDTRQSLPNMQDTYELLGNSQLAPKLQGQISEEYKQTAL

Substance: recombinant mouse native TSHβ (from UniProt P12656 21-138) (ligand)
- cAMP response of AM cells; concentration of peak activity: 0.1 nM

Substance: recombinant mouse novel TSHβ splice variant (from UniProt P12656 55-138) (ligand)
- cAMP response of AM cells; concentration of peak activity: 1000 nM
